{"source": "the supplement of paper PMC10567573", "parents": {"B1": {"name": "KRT34 (parent)", "chain": "PTVDLNQVLNETRSQYEALVETNR"}, "B2": {"name": "MYBL2 (parent)", "chain": "FSPSQFLNFWNKQDTLELESPSLT"}}}
{"variants_of": "B1", "test": "protein stability index of a GFP-peptide fusion (GPS, HEK-293T) (PSI 1-6); higher = more stable", "conditions": "c terminus: a fixed tail appended"}
{"variant": "PTVDLNQVLNETRSQHEALVETNR", "note": "[Y16H]", "protein stability index": 5.25}
{"variant": "PTVDLNQVLNETRSQPEALVETNR", "note": "[Y16P]", "protein stability index": 4.8}
{"variant": "PTVDLNQVLNETRSQVEALVETNR", "note": "[Y16V]", "protein stability index": 4.9}
{"variant": "PTVDLNQVLNETRSQLEALVETNR", "note": "[Y16L]", "protein stability index": 4.19}
{"variant": "PTVDLNQVLNETRSQFEALVETNR", "note": "[Y16F]", "protein stability index": 3.65}
{"variant": "PTVDLNQVLNETRSQKEALVETNR", "note": "[Y16K]", "protein stability index": 4.57}
{"variant": "PTVDLNQVLNETRSQGEALVETNR", "note": "[Y16G]", "protein stability index": 4.89}
{"variant": "PTVDLNQVLNETRSQQEALVETNR", "note": "[Y16Q]", "protein stability index": 5.57}
{"variant": "PTVDLNQVLNETRSQYEALVETNN", "note": "[R24N]", "protein stability index": 4.74}
{"variant": "PTVDLNQVLNETRSQYEALVETNM", "note": "[R24M]", "protein stability index": 2.51}
{"variant": "PTVDLNQVLNETRSQYEALVETNS", "note": "[R24S]", "protein stability index": 4.81}
{"variant": "PTVDLNQVLNETRSQYEALVETNE", "note": "[R24E]", "protein stability index": 3.88}
{"variant": "PTVDLNQVLNETRSQYEALVETNT", "note": "[R24T]", "protein stability index": 3.8}
{"variant": "PTVDPNQVLNETRSQYEALVETNR", "note": "[L5P]", "protein stability index": 3.77}
{"variant": "PTVDDNQVLNETRSQYEALVETNR", "note": "[L5D]", "protein stability index": 4.67}
{"variant": "PTVDKNQVLNETRSQYEALVETNR", "note": "[L5K]", "protein stability index": 4.8}
{"variant": "PTVDYNQVLNETRSQYEALVETNR", "note": "[L5Y]", "protein stability index": 2.77}
{"variant": "PVVDLNQVLNETRSQYEALVETNR", "note": "[T2V]", "protein stability index": 2.52}
{"variant": "PQVDLNQVLNETRSQYEALVETNR", "note": "[T2Q]", "protein stability index": 2.71}
{"variant": "PWVDLNQVLNETRSQYEALVETNR", "note": "[T2W]", "protein stability index": 1.4}
{"variant": "PSVDLNQVLNETRSQYEALVETNR", "note": "[T2S]", "protein stability index": 3.27}
{"variant": "PNVDLNQVLNETRSQYEALVETNR", "note": "[T2N]", "protein stability index": 3.72}
{"variant": "PTVDLNQVLNATRSQYEALVETNR", "note": "[E11A]", "protein stability index": 4.06}
{"variant": "PTVDLNQVLNCTRSQYEALVETNR", "note": "[E11C]", "protein stability index": 3.91}
{"variant": "PTVDLNQVLNYTRSQYEALVETNR", "note": "[E11Y]", "protein stability index": 3.72}
{"variant": "PTVDLNQVLNRTRSQYEALVETNR", "note": "[E11R]", "protein stability index": 4.03}
{"variant": "PTVDLNQVLNPTRSQYEALVETNR", "note": "[E11P]", "protein stability index": 4.1}
{"variant": "PTVDLNQVLNTTRSQYEALVETNR", "note": "[E11T]", "protein stability index": 3.78}
{"variant": "PTVDLNQVLNDTRSQYEALVETNR", "note": "[E11D]", "protein stability index": 3.81}
{"variant": "PTVDLNQVLNETRSQYEALAETNR", "note": "[V20A]", "protein stability index": 2.68}
{"variant": "PTVDLNQVLNETRSQYEALDETNR", "note": "[V20D]", "protein stability index": 4.71}
{"variant": "PTVDLNQVLNETRSQYEALIETNR", "note": "[V20I]", "protein stability index": 4}
{"variant": "PTVDLNQVLNETRSQYEALGETNR", "note": "[V20G]", "protein stability index": 4.44}
{"variants_of": "B2", "test": "protein stability index of a GFP-peptide fusion (GPS, HEK-293T) (PSI 1-6); higher = more stable", "conditions": "c terminus: a fixed tail appended"}
{"variant": "KSPSQFLNFWNKQDTLELESPSLT", "note": "[F1K]", "protein stability index": 3.75}
{"variant": "GSPSQFLNFWNKQDTLELESPSLT", "note": "[F1G]", "protein stability index": 2.83}
{"variant": "HSPSQFLNFWNKQDTLELESPSLT", "note": "[F1H]", "protein stability index": 2.13}
{"variant": "ISPSQFLNFWNKQDTLELESPSLT", "note": "[F1I]", "protein stability index": 3}
{"variant": "SSPSQFLNFWNKQDTLELESPSLT", "note": "[F1S]", "protein stability index": 4.11}
{"variant": "VSPSQFLNFWNKQDTLELESPSLT", "note": "[F1V]", "protein stability index": 3.72}
{"variant": "QSPSQFLNFWNKQDTLELESPSLT", "note": "[F1Q]", "protein stability index": 3.74}
{"variant": "NSPSQFLNFWNKQDTLELESPSLT", "note": "[F1N]", "protein stability index": 3.3}
{"variant": "CSPSQFLNFWNKQDTLELESPSLT", "note": "[F1C]", "protein stability index": 2.62}
{"variant": "TSPSQFLNFWNKQDTLELESPSLT", "note": "[F1T]", "protein stability index": 3.75}
{"variant": "DSPSQFLNFWNKQDTLELESPSLT", "note": "[F1D]", "protein stability index": 4.27}
{"variant": "PSPSQFLNFWNKQDTLELESPSLT", "note": "[F1P]", "protein stability index": 4.2}
{"variant": "ESPSQFLNFWNKQDTLELESPSLT", "note": "[F1E]", "protein stability index": 4.58}
{"variant": "ASPSQFLNFWNKQDTLELESPSLT", "note": "[F1A]", "protein stability index": 3.77}
{"variant": "YSPSQFLNFWNKQDTLELESPSLT", "note": "[F1Y]", "protein stability index": 4.39}
{"variant": "MSPSQFLNFWNKQDTLELESPSLT", "note": "[F1M]", "protein stability index": 3.3}
{"variant": "LSPSQFLNFWNKQDTLELESPSLT", "note": "[F1L]", "protein stability index": 3.51}
{"variant": "RSPSQFLNFWNKQDTLELESPSLT", "note": "[F1R]", "protein stability index": 3.06}
{"variant": "WSPSQFLNFWNKQDTLELESPSLT", "note": "[F1W]", "protein stability index": 2.73}
{"variant": "FQPSQFLNFWNKQDTLELESPSLT", "note": "[S2Q]", "protein stability index": 2.71}
{"variant": "FAPSQFLNFWNKQDTLELESPSLT", "note": "[S2A]", "protein stability index": 2.65}
{"variant": "FWPSQFLNFWNKQDTLELESPSLT", "note": "[S2W]", "protein stability index": 2.98}
{"variant": "FYPSQFLNFWNKQDTLELESPSLT", "note": "[S2Y]", "protein stability index": 1.63}
{"variant": "FCPSQFLNFWNKQDTLELESPSLT", "note": "[S2C]", "protein stability index": 2.66}
{"variant": "FIPSQFLNFWNKQDTLELESPSLT", "note": "[S2I]", "protein stability index": 3.87}
{"variant": "FDPSQFLNFWNKQDTLELESPSLT", "note": "[S2D]", "protein stability index": 1.92}
{"variant": "FRPSQFLNFWNKQDTLELESPSLT", "note": "[S2R]", "protein stability index": 2.26}
{"variant": "FKPSQFLNFWNKQDTLELESPSLT", "note": "[S2K]", "protein stability index": 1.99}
{"variant": "FEPSQFLNFWNKQDTLELESPSLT", "note": "[S2E]", "protein stability index": 2.08}
{"variant": "FFPSQFLNFWNKQDTLELESPSLT", "note": "[S2F]", "protein stability index": 2.14}
{"variant": "FLPSQFLNFWNKQDTLELESPSLT", "note": "[S2L]", "protein stability index": 2.79}
{"variant": "FVPSQFLNFWNKQDTLELESPSLT", "note": "[S2V]", "protein stability index": 3.06}
{"variant": "FTPSQFLNFWNKQDTLELESPSLT", "note": "[S2T]", "protein stability index": 3}
{"variant": "FHPSQFLNFWNKQDTLELESPSLT", "note": "[S2H]", "protein stability index": 3.45}
{"variant": "FPPSQFLNFWNKQDTLELESPSLT", "note": "[S2P]", "protein stability index": 2.13}
{"variant": "FNPSQFLNFWNKQDTLELESPSLT", "note": "[S2N]", "protein stability index": 2.38}
{"variant": "FMPSQFLNFWNKQDTLELESPSLT", "note": "[S2M]", "protein stability index": 3.62}
{"variant": "FSPCQFLNFWNKQDTLELESPSLT", "note": "[S4C]", "protein stability index": 2.91}
{"variant": "FSPEQFLNFWNKQDTLELESPSLT", "note": "[S4E]", "protein stability index": 2}
{"variant": "FSPFQFLNFWNKQDTLELESPSLT", "note": "[S4F]", "protein stability index": 3.04}
{"variant": "FSPGQFLNFWNKQDTLELESPSLT", "note": "[S4G]", "protein stability index": 4.19}
{"variant": "FSPAQFLNFWNKQDTLELESPSLT", "note": "[S4A]", "protein stability index": 2.14}
{"variant": "FSPDQFLNFWNKQDTLELESPSLT", "note": "[S4D]", "protein stability index": 1.79}
{"variant": "FSFSQFLNFWNKQDTLELESPSLT", "note": "[P3F]", "protein stability index": 3.08}
{"variant": "FSESQFLNFWNKQDTLELESPSLT", "note": "[P3E]", "protein stability index": 1.6}
{"variant": "FSDSQFLNFWNKQDTLELESPSLT", "note": "[P3D]", "protein stability index": 3.71}
{"variant": "FSRSQFLNFWNKQDTLELESPSLT", "note": "[P3R]", "protein stability index": 2.39}
{"variant": "FSYSQFLNFWNKQDTLELESPSLT", "note": "[P3Y]", "protein stability index": 3.74}
{"variant": "FSNSQFLNFWNKQDTLELESPSLT", "note": "[P3N]", "protein stability index": 2.38}
{"variant": "FSGSQFLNFWNKQDTLELESPSLT", "note": "[P3G]", "protein stability index": 2.41}
{"variant": "FSASQFLNFWNKQDTLELESPSLT", "note": "[P3A]", "protein stability index": 3.83}
{"variant": "FSQSQFLNFWNKQDTLELESPSLT", "note": "[P3Q]", "protein stability index": 3.52}
{"variant": "FSISQFLNFWNKQDTLELESPSLT", "note": "[P3I]", "protein stability index": 3.19}
{"variant": "FSKSQFLNFWNKQDTLELESPSLT", "note": "[P3K]", "protein stability index": 2.02}
{"variant": "FSMSQFLNFWNKQDTLELESPSLT", "note": "[P3M]", "protein stability index": 2.3}
{"variant": "FSLSQFLNFWNKQDTLELESPSLT", "note": "[P3L]", "protein stability index": 2.69}
{"variant": "FSWSQFLNFWNKQDTLELESPSLT", "note": "[P3W]", "protein stability index": 2.18}
{"variant": "FSSSQFLNFWNKQDTLELESPSLT", "note": "[P3S]", "protein stability index": 2.18}
{"variant": "FSVSQFLNFWNKQDTLELESPSLT", "note": "[P3V]", "protein stability index": 1.77}
{"variant": "FSHSQFLNFWNKQDTLELESPSLT", "note": "[P3H]", "protein stability index": 1.94}
{"variant": "FSTSQFLNFWNKQDTLELESPSLT", "note": "[P3T]", "protein stability index": 2.94}
